Six substances from patent US20150056199A1 can be followed below.

Read-outs that look alike come from different tables or passages of the source. Where only a bound is given, the exact number is not on record here.

Test in all cases: cell-based or functional assay
The target of experiment [1] is human GDF15 (hGDF15), mature, generated in-house in CHO cells (human) (UniProt Q99988).
Experiment [2] deals with human TGFβ1 (PeproTech) (human) (UniProt P01137).
The target in experiment [3] is human TGFβ3 (PeproTech) (human) (UniProt P10600).
Experiment [4] concerns the target human TGFβ1 (PeproTech) (human) (UniProt P01137). This is another data set of the same source.
Experiment [5] addresses human TGFβ3 (PeproTech) (human) (UniProt P10600). The source holds these as a separate data set.
Experiment [6] concerns the target murine GDF15 (mGDF15), mature, generated in-house in CHO cells (mouse) (UniProt Q9Z0J7).

Chain of hTβRIIshort(23-153)-hG2Fc (Fc fusion) (chain): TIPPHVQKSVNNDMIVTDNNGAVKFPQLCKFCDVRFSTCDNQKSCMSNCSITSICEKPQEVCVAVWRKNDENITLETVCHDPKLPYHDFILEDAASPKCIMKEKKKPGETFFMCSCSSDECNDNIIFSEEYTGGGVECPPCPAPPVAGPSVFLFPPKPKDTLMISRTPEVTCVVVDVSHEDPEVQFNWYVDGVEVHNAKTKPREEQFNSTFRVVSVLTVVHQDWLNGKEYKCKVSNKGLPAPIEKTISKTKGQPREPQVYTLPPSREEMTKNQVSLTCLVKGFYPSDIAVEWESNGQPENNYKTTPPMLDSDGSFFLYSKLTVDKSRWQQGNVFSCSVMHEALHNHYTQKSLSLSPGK
Chain of hTβRIIshort(29-159)-hG2Fc (Fc fusion) (chain): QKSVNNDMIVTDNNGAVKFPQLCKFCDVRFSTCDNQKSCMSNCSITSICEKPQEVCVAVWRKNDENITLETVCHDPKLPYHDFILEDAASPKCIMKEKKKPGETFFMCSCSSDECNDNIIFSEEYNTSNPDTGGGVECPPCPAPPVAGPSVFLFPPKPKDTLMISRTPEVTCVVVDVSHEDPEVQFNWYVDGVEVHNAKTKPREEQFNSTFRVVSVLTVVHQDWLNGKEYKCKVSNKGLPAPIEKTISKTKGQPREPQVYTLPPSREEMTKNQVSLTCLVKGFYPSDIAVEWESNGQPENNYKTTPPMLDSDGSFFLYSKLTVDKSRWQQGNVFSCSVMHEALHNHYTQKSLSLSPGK
Chain of human TGFβ3 (PeproTech) (human) (P10600 301-412 limits assumed): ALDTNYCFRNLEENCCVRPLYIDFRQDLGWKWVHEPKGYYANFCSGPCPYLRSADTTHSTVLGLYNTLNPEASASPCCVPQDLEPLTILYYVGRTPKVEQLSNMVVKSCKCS
Chain of hTβRIIshort(35-159)-hG2Fc (Fc fusion) (chain): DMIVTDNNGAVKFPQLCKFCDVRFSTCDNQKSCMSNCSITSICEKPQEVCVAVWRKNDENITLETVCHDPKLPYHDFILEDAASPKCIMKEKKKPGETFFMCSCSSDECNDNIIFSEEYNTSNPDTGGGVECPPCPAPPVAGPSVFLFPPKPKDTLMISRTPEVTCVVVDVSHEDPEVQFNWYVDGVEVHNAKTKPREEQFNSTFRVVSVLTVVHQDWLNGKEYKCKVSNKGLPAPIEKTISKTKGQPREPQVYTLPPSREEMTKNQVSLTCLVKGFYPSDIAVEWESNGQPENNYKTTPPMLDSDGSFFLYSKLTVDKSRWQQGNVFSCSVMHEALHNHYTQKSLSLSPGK
Chain of hTβRIIshort(23-159)-hG2Fc (Fc fusion) (chain): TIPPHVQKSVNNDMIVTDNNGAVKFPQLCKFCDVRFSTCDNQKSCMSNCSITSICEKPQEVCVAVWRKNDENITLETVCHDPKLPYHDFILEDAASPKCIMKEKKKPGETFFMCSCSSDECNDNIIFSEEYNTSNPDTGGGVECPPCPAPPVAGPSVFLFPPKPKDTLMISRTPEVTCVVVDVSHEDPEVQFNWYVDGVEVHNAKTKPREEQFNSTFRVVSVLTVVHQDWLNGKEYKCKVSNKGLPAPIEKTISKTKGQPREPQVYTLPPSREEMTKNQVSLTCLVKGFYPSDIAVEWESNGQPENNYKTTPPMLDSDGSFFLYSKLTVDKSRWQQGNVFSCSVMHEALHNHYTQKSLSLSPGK
Chain of human TGFβ1 (PeproTech) (human) (P01137 279-390 limits assumed): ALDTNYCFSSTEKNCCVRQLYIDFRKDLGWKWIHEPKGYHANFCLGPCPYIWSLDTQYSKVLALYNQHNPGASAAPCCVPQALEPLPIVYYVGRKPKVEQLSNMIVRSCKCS
Chain of human GDF15 (hGDF15), mature, generated in-house in CHO cells (human) (Q99988 197-308): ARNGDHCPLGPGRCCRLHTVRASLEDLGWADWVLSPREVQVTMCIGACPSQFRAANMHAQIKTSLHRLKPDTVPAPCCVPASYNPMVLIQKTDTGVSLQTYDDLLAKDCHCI
Chain of murine GDF15 (mGDF15), mature, generated in-house in CHO cells (mouse) (Q9Z0J7 192-303): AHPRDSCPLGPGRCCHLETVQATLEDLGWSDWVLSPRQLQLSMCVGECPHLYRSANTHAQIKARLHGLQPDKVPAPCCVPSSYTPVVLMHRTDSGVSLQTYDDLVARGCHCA

In turn, hTβRIIshort(23-153)-hG2Fc (Fc fusion) returned an IC50 (nM), A549 CAGA-12 reporter gene assay, hGDF15 (70 ng/ml) in experiment [1] of 0.18 nM. In experiment [2], the IC50 (nM), A549 CAGA-12 reporter gene assay, hTGFβ1 (640 pg/ml) is 2.62 nM. In experiment [3], this substance showed an IC50 (nM), A549 CAGA-12 reporter gene assay, hTGFβ3 (270 pg/ml) of 0.14 nM.
Take “hTβRIIshort(23-153/N70D)-hG2Fc (Fc fusion)”: the IC50 (nM), A549 CAGA-12 reporter gene assay, hGDF15 (70 ng/ml) in experiment [1] was found to be 2.42 nM. In experiment [2], the IC50 (nM), A549 CAGA-12 reporter gene assay, hTGFβ1 (640 pg/ml) turned out to be 17.7 nM.
On to hTβRIIshort(23-159)-hG2Fc (Fc fusion), for which the results for the IC50 (nM), A549 CAGA-12 reporter gene assay, hTGFβ1 (640 pg/ml) in experiment [4] and in experiment [2] were 1.73 nM and 0.52 nM, respectively. The IC50 (nM), A549 CAGA-12 reporter gene assay, hTGFβ3 (270 pg/ml) in experiment [5] came to 0.14 nM; in experiment [3] it was 0.37 nM. The same substance returned an IC50 (nM), A549 CAGA-12 reporter gene assay, mGDF15 (35 ng/ml) in experiment [6] of 0.12 nM. The substance further showed an IC50 (nM), A549 CAGA-12 reporter gene assay, hGDF15 (70 ng/ml) in experiment [1] of 0.14 nM.
Consider “hTβRIIshort(23-159/D110K)-hG2Fc (Fc fusion)”, for which the IC50 (nM), A549 CAGA-12 reporter gene assay, hTGFβ1 (640 pg/ml) in experiment [4] was over 73.6 nM. In experiment [6], this substance gave an IC50 (nM), A549 CAGA-12 reporter gene assay, mGDF15 (35 ng/ml) of 0.7 nM.
In experiment [1], hTβRIIshort(29-159)-hG2Fc (Fc fusion) had an IC50 (nM), A549 CAGA-12 reporter gene assay, hGDF15 (70 or 112 ng/ml) of 0.4 nM. In experiment [2], this substance registered an IC50 (nM), A549 CAGA-12 reporter gene assay, hTGFβ1 (640 pg/ml) of 2.05 nM. The IC50 (nM), A549 CAGA-12 reporter gene assay, hTGFβ3 (270 pg/ml) in experiment [3] is over 7.5 nM.
hTβRIIshort(35-159)-hG2Fc (Fc fusion) came in with an IC50 (nM), A549 CAGA-12 reporter gene assay, hGDF15 (70 or 112 ng/ml) in experiment [1] of 0.92 nM. In experiment [2], this substance returned an IC50 (nM), A549 CAGA-12 reporter gene assay, hTGFβ1 (640 pg/ml) of 2.51 nM. The substance further showed an IC50 (nM), A549 CAGA-12 reporter gene assay, hTGFβ3 (270 pg/ml) in experiment [3] of over 7.5 nM.
